The record followed here is publication PMC4784663.

In general, stoichiometry N refers to a count of units in the complex or per binding partner.

For this test, the target named is Chicken Best1 residues 1–405 (GgBest1) (chicken). Nature of the test: crystal structure; GgBest1–Fab complex, hanging-drop vapour diffusion; P2_1 form in CYMAL-6 or CYMAL-6-NG, 0–60 mM NaCl, 50 mM sodium acetate pH 4.0, 5% PEG 4000, 20% glycerol; C2 form in DM, 120 mM NaCl, 50 mM Tris pH 8.5, 8.5% PEG 4000, 20% glycerol; sample supplemented with 50 mM GABA.

Regarding “Chicken Best1 residues 1–405 (GgBest1) (domain or fragment)”, the stoichiometry N came to 5.
